Consider 1 substance from paper PMC4347215.

In this test the target is recombinant CA/09 NA, thrombin-cleaved (His-tag depleted) (influenza A virus A/California/07/2009 (H1N1)pdm09) (UniProt C3W5S3). As to the kind of experiment: crystal structure.

Take “recombinant CA/09 NA, thrombin-cleaved (His-tag depleted) (from UniProt C3W5S3 82-467) (enzyme)”: the stoichiometry N (usually a count of units in the complex or per binding partner) amounted to 4.
